Reference: PMC2710002, “KCNE1 and KCNE3 β-Subunits Regulate Membrane Surface Expression of Kv12.2 K^+ Channels In Vitro and Form a Tripartite Complex In Vivo” (PLoS ONE, 2009)

Target: the molecule itself
Assay: native gel or EMSA; blue native PAGE (4-16% NativePAGE Novex Bis-Tris, G-250, pH 7, 4°C) of proteins immunoprecipitated from digitonin lysate of mouse brain; blot with anti-Kv12.2; size of the Kv12.2 complex

B1: Kv12.2 channel (natural protein, mouse (endogenous in mouse brain), UniProt Q9WVJ0 1-1095, looked up)
chain: MPAMRGLLAPQNTFLDTIATRFDGTHSNFVLGNAQVAGLFPVVYCSDGFCDLTGFSRAEVMQRGCACSFLYGPDTSELVRQQIRKALDEHKEFKAELILYRKSGLPFWCLLDVIPIKNEKGEVALFLVSHKDISETKNRGGPDNWKERGGGRRRYGRAGSKGFNANRRRSRAVLYHLSGHLQKQPKGKHKLNKGVFGEKPNLPEYKVAAIRKSPFILLHCGALRATWDGFILLATLYVAVTVPYSVCVSTAREPSAARGPPSVCDLAVEVLFILDIVLNFRTTFVSKSGQVVFAPKSICLHYVTTWFLLDVIAALPFDLLHAFKVNVYVGAHLLKTVRLLRLLRLLPRLDRYSQYSAVVLTLLMAVFALLAHWVACVWFYIGQQEIESSESELPEIGWLQELARRLETPYYLVSRSPDGGNSSGQSENCSSSSSSSGSGGGRGSEANGTGLELLGGPSLRSAYITSLYFALSSLTSVGFGNVSANTDTEKIFSICTMLIGALMHAVVFGNVTAIIQRMYARRFLYHSRTRDLRDYIRIHRIPKPLKQRMLEYFQATWAVNNGIDTTELLQSLPDELRADIAMHLHKEVLQLPLFEAASRGCLRALSLALRPAFCTPGEYLIHQGDALQALYFVCSGSMEVLKGGTVLAILGKGDLIGCELPQREQVVKANADVKGLTYCVLQCLQLAGLHESLALYPEFAPRFSRGLRGELSYNLGAGGVSAEVDTSSLSGDNTLMSTLEEKETDGEQGHTVSPAPADEPSSPLLSPGCTSSSSAAKLLSPRRTAPRPRLGGRGRPSRAGVLKPEAGPSAHPRSLDGLQLPPMPWNVPPDLSPRVVDGIEDGCSSDQPKFSFRVGQSGPECSSSPSPGTESGLLTVPLGPSEARNTDTLDKLRQAVMELSEQVLQMREGLQSLRQAVQLILVPQGEGQCPRGSGEEPCPATASGLLQPLRVDTGASSYCLQPPAGSVLSGTWPHPRPGQPPPLMAPWPWGPPASQSSPWPRATALWTSTSDSEPPGSGDLCSEPSTPASPPPSEEGARTGTPAPVSQAEATSTGEPPPGPGGRALPWDPHSLEMVLIGCHGPGTVQWTQEEGTGV
notes: Kv12.2 (ELK2, KCNH3) voltage-gated potassium channel alpha subunit, mouse, endogenous in brain; about 120 kDa monomer on a denaturing gel, about 500 kDa complex on a native gel; also called ELK2; KCNH3; source: endogenous, mouse brain membrane lysate (0.5% Igepal) or whole mouse brain lysate (1% digitonin)
  stoichiometry N: 4
